Results on two molecules are retold here after article PMC12500691 (Frontiers in Cellular and Infection Microbiology, 2025).

In test [1] the target is T1, SARS-CoV-2 ORF7a (SARS-CoV-2 (Wuhan variant), UniProt P0DTC7 16-96).
T1 construct: also called open reading frame 7a; accessory protein ORF7a; not shown: twin strep tag, N-terminal, kept
T1 sequence: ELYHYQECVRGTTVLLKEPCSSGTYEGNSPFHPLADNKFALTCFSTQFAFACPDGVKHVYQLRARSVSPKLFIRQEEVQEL
Briefly: SPR. Conditions: both partners purified.

For test [2], the target named is T2, SARS-CoV-2 ORF8 (SARS-CoV-2 (Wuhan variant), UniProt P0DTC8 16-121).
T2 construct: also called open reading frame 8; accessory protein ORF8; not shown: twin strep tag, N-terminal, kept
T2 sequence (P0DTC8 16-121): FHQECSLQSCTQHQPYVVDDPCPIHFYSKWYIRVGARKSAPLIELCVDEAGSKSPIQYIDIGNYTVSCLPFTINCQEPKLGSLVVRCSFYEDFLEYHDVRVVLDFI
Briefly: negative stain electron microscopy. Conditions: both partners purified.

Where no end group is shown, it is not given here.

As a reminder, the Kd is a measure of binding affinity in units of concentration. In general, stoichiometry N refers to the number of molecules, sites or subunits per partner or assembly.

B1: LL-37 (peptide)
peptide: LLGDFFRKSKEKIGKEFKRIVQRIKDFLRNLVPRTES
notes: also called synthetic LL-37; human antimicrobial peptide LL-37; source: synthetic peptide, bought: Invivogen
B1: the Kd in test [1] amounted to 138 nM.

B2: gold-labeled LL-37 (peptide)
peptide: LLGDFFRKSKEKIGKEFKRIVQRIKDFLRNLVPRTES
modifications: also: directly conjugated with colloidal gold
notes: also called LL-37 directly conjugated with colloidal gold; source: synthetic peptide, bought: Invivogen; conjugated with colloidal gold
In the case of B2, the “stoichiometry N” value in test [2] turned out to be 1.
